Data: paper PMC11079029, “Intramolecular autoinhibition regulates the selectivity of PRPF40A tandem WW domains for proline-rich motifs” (Nature Communications, 2024)

B1: SF3A3 (protein, UniProt Q12874 1-501, looked up)
Splicing factor 3A subunit 3: METILEQQRRYHEEKERLMDVMAKEMLTKKSTLRDQINSDHRTRAMQDRYMEVSGNLRDLYDDKDGLRKEELNAISGPNEFAEFYNRLKQIKEFHRKHPNEICVPMSVEFEELLKARENPSEEAQNLVEFTDEEGYGRYLDLHDCYLKYINLKASEKLDYITYLSIFDQLFDIPKERKNAEYKRYLEMLLEYLQDYTDRVKPLQDQNELFGKIQAEFEKKWENGTFPGWPKETSSALTHAGAHLDLSAFSSWEELASLGLDRLKSALLALGLKCGGTLEERAQRLFSTKGKSLESLDTSLFAKNPKSKGTKRDTERNKDIAFLEAQIYEYVEILGEQRHLTHENVQRKQARTGEEREEEEEEQISESESEDEENEIIYNPKNLPLGWDGKPIPYWLYKLHGLNINYNCEICGNYTYRGPKAFQRHFAEWRHAHGMRCLGIPNTAHFANVTQIEDAVSLWAKLKLQKASERWQPDTEEEYEDSSGNVVNKKTYEDLKRQGLL
B2: SF3A1 (protein, UniProt Q15459 2-793, looked up)
Splicing factor 3A subunit 1: PAGPVQAVPPPPPVPTEPKQPTEEEASSKEDSAPSKPVVGIIYPPPEVRNIVDKTASFVARNGPEFEARIRQNEINNPKFNFLNPNDPYHAYYRHKVSEFKEGKAQEPSAAIPKVMQQQQQTTQQQLPQKVQAQVIQETIVPKEPPPEFEFIADPPSISAFDLDVVKLTAQFVARNGRQFLTQLMQKEQRNYQFDFLRPQHSLFNYFTKLVEQYTKILIPPKGLFSKLKKEAENPREVLDQVCYRVEWAKFQERERKKEEEEKEKERVAYAQIDWHDFVVVETVDFQPNEQGNFPPPTTPEELGARILIQERYEKFGESEEVEMEVESDEEDDKQEKAEEPPSQLDQDTQVQDMDEGSDDEEEGQKVPPPPETPMPPPLPPTPDQVIVRKDYDPKASKPLPPAPAPDEYLVSPITGEKIPASKMQEHMRIGLLDPRWLEQRDRSIREKQSDDEVYAPGLDIESSLKQLAERRTDIFGVEETAIGKKIGEEEIQKPEEKVTWDGHSGSMARTQQAAQANITLQEQIEAIHKAKGLVPEDDTKEKIGPSKPNEIPQQPPPPSSATNIPSSAPPITSVPRPPTMPPPVRTTVVSAVPVMPRPPMASVVRLPPGSVIAPMPPIIHAPRINVVPMPPSAPPIMAPRPPPMIVPTAFVPAPPVAPVPAPAPMPPVHPPPPMEDEPTSKKLKTEDSLMPEEEFLRRNKGPVSIKVQVPNMQDKTEWKLNGQVLVFTLPLTDQVSVIKVKIHEATGMPAGKQKLQYEGIFIKDSNSLAYYNMANGAVIHLALKERGGRKK
B3: SF3A2 (protein, UniProt Q15428 1-464, looked up)
Splicing factor 3A subunit 2: MDFQHRPGGKTGSGGVASSSESNRDRRERLRQLALETIDINKDPYFMKNHLGSYECKLCLTLHNNEGSYLAHTQGKKHQTNLARRAAKEAKEAPAQPAPEKVKVEVKKFVKIGRPGYKVTKQRDSEMGQQSLLFQIDYPEIAEGIMPRHRFMSAYEQRIEPPDRRWQYLLMAAEPYETIAFKVPSREIDKAEGKFWTHWNRETKQFFLQFHFKMEKPPAPPSLPAGPPGVKRPPPPLMNGLPPRPPLPESLPPPPPGGLPLPPMPPTGPAPSGPPGPPQLPPPAPGVHPPAPVVHPPASGVHPPAPGVHPPAPGVHPPAPGVHPPTSGVHPPAPGVHPPAPGVHPPAPGVHPPAPGVHPPAPGVHPPPSAGVHPQAPGVHPAAPAVHPQAPGVHPPAPGMHPQAPGVHPQPPGVHPSAPGVHPQPPGVHPSNPGVHPPTPMPPMLRPPLPSEGPGNIPPPPPTN
B4: MTREX (protein, UniProt P42285 2-1042, looked up)
Exosome RNA helicase MTR4: ADAFGDELFSVFEGDSTTAAGTKKDKEKDKGKWKGPPGSADKAGKRFDGKLQSESTNNGKNKRDVDFEGTDEPIFGKKPRIEESITEDLSLADLMPRVKVQSVETVEGCTHEVALPAEEDYLPLKPRVGKAAKEYPFILDAFQREAIQCVDNNQSVLVSAHTSAGKTVCAEYAIALALREKQRVIFTSPIKALSNQKYREMYEEFQDVGLMTGDVTINPTASCLVMTTEILRSMLYRGSEVMREVAWVIFDEIHYMRDSERGVVWEETIILLPDNVHYVFLSATIPNARQFAEWICHLHKQPCHVIYTDYRPTPLQHYIFPAGGDGLHLVVDENGDFREDNFNTAMQVLRDAGDLAKGDQKGRKGGTKGPSNVFKIVKMIMERNFQPVIIFSFSKKDCEAYALQMTKLDFNTDEEKKMVEEVFSNAIDCLSDEDKKLPQVEHVLPLLKRGIGIHHGGLLPILKETIEILFSEGLIKALFATETFAMGINMPARTVLFTNARKFDGKDFRWISSGEYIQMSGRAGRRGMDDRGIVILMVDEKMSPTIGKQLLKGSADPLNSAFHLTYNMVLNLLRVEEINPEYMLEKSFYQFQHYRAIPGVVEKVKNSEEQYNKIVIPNEESVVIYYKIRQQLAKLGKEIEEYIHKPKYCLPFLQPGRLVKVKNEGDDFGWGVVVNFSKKSNVKPNSGELDPLYVVEVLLRCSKESLKNSATEAAKPAKPDEKGEMQVVPVLVHLLSAISSVRLYIPKDLRPVDNRQSVLKSIQEVQKRFPDGIPLLDPIDDMGIQDQGLKKVIQKVEAFEHRMYSHPLHNDPNLETVYTLCEKKAQIAIDIKSAKRELKKARTVLQMDELKCRKRVLRRLGFATSSDVIEMKGRVACEISSADELLLTEMMFNGLFNDLSAEQATALLSCFVFQENSSEMPKLTEQLAGPLRQMQECAKRIAKVSAEAKLEIDEETYLSSFKPHLMDVVYTWATGATFAHICKMTDVFEGSIIRCMRRLEELLRQMCQAAKAIGNTELENKFAEGITKIKRDIVFAASLYL
B5: DIAPH2 (protein, UniProt O60879 1-1101, looked up)
Protein diaphanous homolog 2: MEQPGAAASGAGGGSEEPGGGRSNKRSAGNRAANEEETKNKPKLNIQIKTLADDVRDRITSFRKSTVKKEKPLIQHPIDSQVAMSEFPAAQPLYDERSLNLSEKEVLDLFEKMMEDMNLNEEKKAPLRNKDFTTKREMVVQYISATAKSGGLKNSKHECTLSSQEYVHELRSGISDEKLLNCLESLRVSLTSNPVSWVNNFGHEGLGLLLDELEKLLDKKQQENIDKKNQYKLIQCLKAFMNNKFGLQRILGDERSLLLLARAIDPKQPNMMTEIVKILSAICIVGEENILDKLLGAITTAAERNNRERFSPIVEGLENQEALQLQVACMQFINALVTSPYELDFRIHLRNEFLRSGLKTMLPDLKEKENDELDIQLKVFDENKEDDLTELSHRLNDIRAEMDDMNEVYHLLYNMLKDTAAENYFLSILQHFLLIRNDYYIRPQYYKIIEECVSQIVLHCSGMDPDFKYRQRLDIDLTHLIDSCVNKAKVEESEQKAAEFSKKFDEEFTARQEAQAELQKRDEKIKELEAEIQQLRTQAQVLSSSSGIPGPPAAPPLPGVGPPPPPPAPPLPGGAPLPPPPPPLPGMMGIPPPPPPPLLFGGPPPPPPLGGVPPPPGISLNLPYGMKQKKMYKPEVSMKRINWSKIEPTELSENCFWLRVKEDKFENPDLFAKLALNFATQIKVQKNAEALEEKKTGPTKKKVKELRILDPKTAQNLSIFLGSYRMPYEDIRNVILEVNEDMLSEALIQNLVKHLPEQKILNELAELKNEYDDLCEPEQFGVVMSSVKMLQPRLSSILFKLTFEEHINNIKPSIIAVTLACEELKKSESFNRLLELVLLVGNYMNSGSRNAQSLGFKINFLCKIRDTKSADQKTTLLHFIADICEEKYRDILKFPEELEHVESASKVSAQILKSNLASMEQQIVHLERDIKKFPQAENQHDKFVEKMTSFTKTAREQYEKLSTMHNNMMKLYENLGEYFIFDSKTVSIEEFFGDLNNFRTLFLEAVRENNKRREMEEKTRRAKLAKEKAEQEKLERQKKKKQLIDINKEGDETGVMDNLLEALQSGAAFRDRRKRIPRNPDNRRVPLERSRSRHNGAISSK

Tested on: GFP-tagged PRPF40A-Nter-MUT
Test: SILAC GFP-immunoprecipitation with quantitative mass spectrometry, mutant construct
Assay type: binding, human (Hela cells)
Conditions: quantitative MS, Hela cells, protein by gene name
Protocol: The PRPF40A N-terminal region (isoform 2, residues 1-221) was PCR-amplified from RPE1 cDNA (ATCC, Cat# CRL-4000) cDNA. The sequence was amplified in two fragments and both fragments were combined by overhang. All PCRs were carried out using Q5 Polymerase (NEB) according to manufacturer’s protocol. The resulting PRPF40A N-terminal region was cloned into a GFP-expressing pcDNA5 vector (see pcDNA5 GFP vector in ref. [28]) using Q5 Site-Directed Mutagenesis Kit (NEB). Nter-MUT, containing the PPVP/PALPP motifs changed to AAAA/AAAAA, was obtained by mutating the N-ter-WW12-containing plasmid with Q5 site-directed mutagenesis. Plasmids were transformed into DH5alpha chemically competent cells. After culturing, DNA isolation was performed with either ZymoPURE Plasmid Miniprep Kit (Zymo Research) or QIAGEN Plasmid Plus Midi Kit (Qiagen). The sequence was confirmed by Sanger Sequencing (GATC Eurofins). All used oligonucleotides are shown in Supplementary Table 6.
Hela cells (ATCC, Cat# CCL-2, RRID:CVCL_0030) were cultured in DMEM SILAC medium (Thermo Fisher) supplemented with 10% filtered FBS (Sigma-Aldrich) and 1% penicillin-streptomycin (Thermo-Fisher). The SILAC medium contains either light (Arg0, Lys0), medium (Arg6, Lys4) or heavy (Arg10, Lys8) isotopes (Cambridge Isotopes Laboratories). Hela cells were cultivated for 14 days in SILAC medium to assure sufficient isotope incorporation. For transfection, 7 × 10^6 Hela cells were seeded in a 15 cm culture dish in 20 ml of respective SILAC medium and grown for 24 h. The cells were then transfected with 20 µg of plasmids expressing either GFP (Control), GFP-tagged N-ext-WW12 or GFP-tagged-N-ext-WW12-MUT utilizing 64 µl FuGENE (Promega) (ratio 1:3.2), according to manufacturer’s protocol.
24 h post-transfection, cells were washed twice in ice-cold PBS and harvested in 1 ml mRIPA buffer (50 mM Tris, 150 mM NaCl, 1 mM EDTA, 1% NP-40, 0.1% Na-deoxycholate), supplemented with 2 µl Turbo-DNase (Thermo Fisher) and 3 µl protease-inhibitor cocktail cOmplete (Sigma-Aldrich). Cell lysates were cleared by centrifugation at 16,000 × g, 4 °C, 15 min and concentration was measured using Pierce BCA Protein Assay kit (Thermo Scientific). The expressed constructs were pulled down by incubating 2.5 mg of lysate with 20 μl GFP-nanobody agarose beads (ChromoTek, GTA-20) for 1 h at 4 °C under constant agitation. Subsequently, beads were washed three times with mRIPA buffer without supplements, then eluted in 1X NuPAGE LDS sample buffer (Thermo Scientific). To detach the proteins from the beads, the eluate was heated to 70 °C for 10 min To evaluate the success of the immunoprecipitation, input (1%) and IP samples were analyzed on a NuPAGE 4–12% Bis-Tris-Acrylamide gel (Thermo Fisher) using NuPAGE MOPS SDS running buffer (Thermo Fisher). Proteins were stained using Sypro Ruby protein gel stain (Thermo Fisher) according to manufacturer’s protocol.
The eluted proteins of three SILAC states (light, medium, heavy) were combined. The proteins were then reduced in DTT, alkylated in iodoacetamide, and purified using the SP3 paramagnetic bead approach. This was followed by overnight enzymatic digestion using trypsin (1 µg per sample) in 50 mM ammonium bicarbonate at 37 °C. The peptide solution was then purified by solid phase extraction in C18 StageTips[99].
Peptides were separated by online reverse phase liquid chromatography using the EASY-nLC 1000 system (Thermo Scientific) in a 30-cm analytical column (inner diameter: 75 μm; heated at 50 °C) packed in-house with ReproSil-Pur 120 C18-AQ 1.9-μm beads (Dr. Maisch GmbH). The gradient separation was performed through a 105-min non-linear gradient of 1.6–32% acetonitrile with 0.1% formic acid at a nanoflow rate of 225 nl/min. The eluted peptides were sprayed directly by electrospray ionization into a Q Exactive Plus Orbitrap mass spectrometer (Thermo Scientific). […]

Point of comparison: B2, “Immunoprecipitation enrichment MUT vs WT, log2 FC” value 1.381. Against it:
- B1 — lower, 1.179
- B3 — within 0.2 log units, 1.275
- B4 — within 0.2 log units, 1.198
- B5 — within 0.2 log units, 1.317
